Data set [1] deals with HeLa Kyoto. Put plainly: solubility in G1/S (NP-40 vs SDS abundance) (log2 ratio); higher = more soluble. As to conditions: cell cycle stage: G1/S.
The test system of data set [2] is HeLa Kyoto. Put plainly: solubility change mitosis vs G1/S (difference of NP-40 vs SDS log2 ratios) (log2 ratio difference); higher = more soluble in mitosis.
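Wherever solubility change mitosis vs G1/S (difference of NP-40 vs SDS log2 ratios) is given: synchronized HeLa Kyoto cells (double thymidine block for G1/S, nocodazole release for mitosis), protein amounts in NP-40 versus SDS lysates quantified by mass spectrometry, three biological replicates.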
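Wherever solubility in G1/S (NP-40 vs SDS abundance) is given: HeLa Kyoto cells arrested at G1/S by double thymidine block, proteins quantified by TMT10plex mass spectrometry in mild NP-40 versus SDS extracts, three biological replicates.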

As for “MAELNTHVNVKEKIYAVRSVVPNKSNNEIVLVLQQFDFNVDKAVQAFVDGSAIQVLKEWNMTGKKKNNKRKRSKSKQHQGNKDAKDKVERPEAGPLQPQPPQIQNGPMNGCEKDSSSTDSANEKPALIPREKKISILEEPSKALRGVTEGNRLLQQKLSLDGNPKPIHGTTERSDGLQWSAEQPCNPSKPKAKTSPVKSNTPAAHLEIKPDELAKKRGPNIEKSVKDLQRCTVSLTRYRVMIKEEVDSSVKKIKAAFAELHNCIIDKEVSLMAEMDKVKEEAMEILTARQKKAEELKRLTDLASQMAEMQLAELRAEIKHFVSERKYDEELGKAARFSCDIEQLKAQIMLCGEITHPKNNYSSRTPCSSLLPLLNAHAATSGKQSNFSRKSSTHNKPSEGKAANPKMVSSLPSTADPSHQTMPANKQNGSSNQRRRFNPQYHNNRLNGPAKSQGSGNEAEPLGKGNSRHEHRRQPHNGFRPKNKGGAKNQEASLGMKTPEAPAHSEKPRRRQHAADTSEARPFRGSVGRVSQCNLCPTRIEVSTDAAVLSVPAVTLVA [SPATS2L]”, in the data set with HeLa Kyoto [1], the “solubility in G1/S (log2)” value is -1.29. Moreover, in the data set on HeLa Kyoto [2], the “solubility change mitosis (log2)” value came out at 1.14.

Consider “MAEPLLRKTFSRLRGREKLPRKKSDAKERGHPAQRPEPSPPEPEPQAPEGSQAGAEGPSSPEASRSPARGAYLQSLEPSSRRWVLGGAKPAEDTSLGPGVPGTGEPAGEIWYNPIPEEDPRPPAPEPPGPQPGSAESEGLAPQGAAPASPPTKASRTKSPGPARRLSIKMKKLPELRRRLSLRGPRAGRERERAAPAGSVISRYHLDSSVGGPGPAAGPGGTRSPRAGYLSDGDSPERPAGPPSPTSFRPYEVGPAARAPPAALWGRLSLHLYGLGGLRPAPGATPRDLCCLLQVDGEARARTGPLRGGPDFLRLDHTFHLELEAARLLRALVLAWDPGVRRHRPCAQGTVLLPTVFRGCQAQQLAVRLEPQGLLYAKLTLSEQQEAPATAEPRVFGLPLPLLVERERPPGQVPLIIQKCVGQIERRGLRVVGLYRLCGSAAVKKELRDAFERDSAAVCLSEDLYPDINVITGILKDYLRELPTPLITQPLYKVVLEAMARDPPNRVPPTTEGTRGLLSCLPDVERATLTLLLDHLRLVSSFHAYNRMTPQNLAVCFGPVLLPARQAPTRPRARSSGPGLASAVDFKHHIEVLHYLLQSWPDPRLPRQSPDVAPYLRPKRQPPLHLPLADPEVVTRPRGRGGPESPPSNRYAGDWSVCGRDFLPCGRDFLSGPDYDHVTGSDSEDEDEEVGEPRVTGDFEDDFDAPFNPHLNLKDFDALILDLERELSKQINVCL [SYDE1]”, for which the “solubility in G1/S (log2)” value in the data set with HeLa Kyoto [1] was determined as 0.269. Besides, the “solubility change mitosis (log2)” value in the data set on HeLa Kyoto [2] amounted to 0.106.

Consider “MAESSSESDHFRCRDRLSPWAARSTHRGTRSLPTVEVTEKVNTITSTLQDTSRNLRQVDQMLGRYREYSNGQAGAIEHLKESLEQSIDQLRSQRLLRNSGGRSISVTSLSASDLDGGTGSELHHFPPTSPLKDYGDPQGIKRMRSRTGVRFVQETDDMTQLHGFHQSLRDLSSEQIRLGDDFNRELSRRSRSDAETKRALEELTEKLNEAQKQEVVSDRVERRLQELEREMRTERELVERRQDQLGLMSLQLQEALKKQEAKADEHEGAIKNKLRQTETEKNQLEQELELSRRLLNQSEGSRETLLHQVEELRTQLTKAEGDRKGLQHQVSQISKQQSNYQDEQGEDWRFRRGVEREKQDLEKQMSDLRVQLNFSAMASELEEVKRCMERKDKEKAHLASQVENLTRELENGEKQQLQMLDRLKEIQNHFDTCEAERKHADLQISELTRHAEDATKQAERYLSELQQSEALKEEAEKRREDLKLKAQESIRQWKLKHKKLERALEKQSETVDELTGKNNQILKEKDELKTQLYAALQQIENLRKELNDVLTKRALQEEELHSKEEKLRDIKSHQADLELEVKNSLDTIHRLESELKKQSKIQSQMKVEKAHLEEEIAELKKSQAQDKAKLLEMQESIKDLSAIRADLANKLAEEERAKKAVLKDLSDLTAQAKSRDEETATIITQLKLERDVHQRELKDLTSSLQSVKTKHEQNIQELMKHFKKEKSEAENHIRTLKAESLEEKNMAKIHRGQLEKLKSQCDRLTEELTQNENENKKLKLKYQCLKDQLEEREKHISIEEEHLRRMEEARLQLKDQLLCLETEQESILGVIGKEIDAACKTFSKDSVEKLKVFSSGPDIHYDPHRWLAESKTKLQWLCEELKERENREKNLRHQLMLCRQQLRNLTENKESELQCLFQQIERQEQLLDEIHREKRDLLEETQRKDEEMGSLQDRVIALETSTQVALDHLESVPEKLSLLEDFKDFRDSCSSSERTDGRYSKYRVRRNSLQHHQDDTKYRTKSFKGDRTFLEGSHTRGLDHSSSWQDHSRFLSSPRFSYVNSFTKRTVAPDSASNKEDATMNGTSSQPKKEEYGS [CEP128]”, for which, in the data set on HeLa Kyoto [1], the “solubility in G1/S (log2)” value is 0.351. Further, the “solubility change mitosis (log2)” value in the data set on HeLa Kyoto [2] was -0.182.

For “MAGARRLELGEALALGSGWRHACHALLYAPDPGMLFGRIPLRYAILMQMRFDGRLGFPGGFVDTQDRSLEDGLNRELREELGEAAAAFRVERTDYRSSHVGSGPRVVAHFYAKRLTLEELLAVEAGATRAKDHGLEVLGLVRVPLYTLRDGVGGLPTFLENSFIGSAREQLLEALQDLGLLQSGSISGLKIPAHH [NUDT16]”, the “solubility in G1/S (log2)” value in the data set with HeLa Kyoto [1] came out at 0.0531. In addition, the “solubility change mitosis (log2)” value in the data set on HeLa Kyoto [2] was -0.184.

In the case of “MAGPLRAPLLLLAILAVALAVSPAAGSSPGKPPRLVGGPMDASVEEEGVRRALDFAVGEYNKASNDMYHSRALQVVRARKQIVAGVNYFLDVELGRTTCTKTQPNLDNCPFHDQPHLKRKAFCSFQIYAVPWQGTMTLSKSTCQDA [CST3]”, the “solubility in G1/S (log2)” value in the data set with HeLa Kyoto [1] was -0.0401. Moreover, in the data set with HeLa Kyoto [2], the “solubility change mitosis (log2)” value stood at 0.378.

Turning to “MAGPQPLALQLEQLLNPRPSEADPEADPEEATAARVIDRFDEGEDGEGDFLVVGSIRKLASASLLDTDKRYCGKTTSRKAWNEDHWEQTLPGSSDEEISDEEGSGDEDSEGLGLEEYDEDDLGAAEEQECGDHRESKKSRSHSAKTPGFSVQSISDFEKFTKGMDDLGSSEEEEDEESGMEEGDDAEDSQGESEEDRAGDRNSEDDGVVMTFSSVKVSEEVEKGRAVKNQIALWDQLLEGRIKLQKALLTTNQLPQPDVFPLFKDKGGPEFSSALKNSHKALKALLRSLVGLQEELLFQYPDTRYLVDGTKPNAGSEEISSEDDELVEEKKQQRRRVPAKRKLEMEDYPSFMAKRFADFTVYRNRTLQKWHDKTKLASGKLGKGFGAFERSILTQIDHILMDKERLLRRTQTKRSVYRVLGKPEPAAQPVPESLPGEPEILPQAPANAHLKDLDEEIFDDDDFYHQLLRELIERKTSSLDPNDQVAMGRQWLAIQKLRSKIHKKVDRKASKGRKLRFHVLSKLLSFMAPIDHTTMNDDARTELYRSLFGQLHPPDEGHGD [AATF]”, in the data set on HeLa Kyoto [1], the “solubility in G1/S (log2)” value is -2.12. In addition, in the data set on HeLa Kyoto [2], the “solubility change mitosis (log2)” value was found to be 0.788.

“MAGYLKLVCVSFQRQGFHTVGSRCKNRTGAEHLWLTRHLRDPFVKAAKVESYRCRSAFKLLEVNERHQILRPGLRVLDCGAAPGAWSQVAVQKVNAAGTDPSSPVGFVLGVDLLHIFPLEGATFLCPADVTDPRTSQRILEVLPGRRADVILSDMAPNATGFRDLDHDRLISLCLTLLSVTPDILQPGGTFLCKTWAGSQSRRLQRRLTEEFQNVRIIKPEASRKESSEVYFLATQYHGRKGTVKQ [FTSJ2]”: the “solubility in G1/S (log2)” value in the data set on HeLa Kyoto [1] was found to be 0.00974. Further, the “solubility change mitosis (log2)” value with HeLa Kyoto [2] is 0.0979.

Consider “MAHEAMEYDVQVQLNHAEQQPAPAGMASSQGGPALLQPVPADVVSSQGVPSILQPAPAEVISSQATPPLLQPAPQLSVDLTEVEVLGEDTVENINPRTSEQHRQGSDGNHTIPASSLHSMTNFISGLQRLHGMLEFLRPSSSNHSVGPMRTRRRVSASRRARAGGSQRTDSARLRAPLDAYFQVSRTQPDLPATTYDSETRNPVSEELQVSSSSDSDSDSSAEYGGVVDQAEESGAVILEEQLAGVSAEQEVTCIDGGKTLPKQPSPQKSEPLLPSASMDEEEGDTCTICLEQWTNAGDHRLSALRCGHLFGYRCISTWLKGQVRKCPQCNKKARHSDIVVLYARTLRALDTSEQERMKSSLLKEQMLRKQAELESAQCRLQLQVLTDKCTRLQRRVQDLQKLTSHQSQNLQQPRGSQAWVLSCSPSSQGQHKHKYHFQKTFTVSQAGNCRIMAYCDALSCLVISQPSPQASFLPGFGVKMLSTANMKSSQYIPMHGKQIRGLAFSSYLRGLLLSASLDNTIKLTSLETNTVVQTYNAGRPVWSCCWCLDEANYIYAGLANGSILVYDVRNTSSHVQELVAQKARCPLVSLSYMPRAASAAFPYGGVLAGTLEDASFWEQKMDFSHWPHVLPLEPGGCIDFQTENSSRHCLVTYRPDKNHTTIRSVLMEMSYRLDDTGNPICSCQPVHTFFGGPTCKLLTKNAIFQSPENDGNILVCTGDEAANSALLWDAASGSLLQDLQTDQPVLDICPFEVNRNSYLATLTEKMVHIYKWE [RFWD3]”, for which, in the data set on HeLa Kyoto [1], the “solubility in G1/S (log2)” value is -0.0967. Further, the “solubility change mitosis (log2)” value in the data set with HeLa Kyoto [2] is -0.0684.

Regarding “MAHLGPTPPPHSLNYKSEDRLSEQDWPAYFKVPCCGVDTSQIESEEAEVDVRERETQRDREPKRARDLTLRDSCTDNSMQFGTRTTTAEPGFMGTWQNADTNLLFRMSQQAIRCTLVNCTCECFQPGKINLRTCDQCKHGWVAHALDKLSTQHLYHPTQVEIVQSNVVFDISSLMLYGTQAVPVRLKILLDRLFSVLKQEEVLHILHGLGWTLRDYVRGYILQDAAGKVLDRWAIMSREEEIITLQQFLRFGETKSIVELMAIQEKEGQAVAVPSSKTDSDIRTFIESNNRTRSPSLLAHLENSNPSSIHHFENIPNSLAFLLPFQYINPVSAPLLGLPPNGLLLEQPGLRLREPSLSTQNEYNESSESEVSPTPYKNDQTPNRNALTSITNVEPKTEPACVSPIQNSAPVSDLTKTEHPKSSFRIHRMRRMGSASRKGRVFCNACGKTFYDKGTLKIHYNAVHLKIKHRCTIEGCNMVFSSLRSRNRHSANPNPRLHMPMLRNNRDKDLIRATSGAATPVIASTKSNLALTSPGRPPMGFTTPPLDPVLQNPLPSQLVFSGLKTVQPVPPFYRSLLTPGEMVSPPTSLPTSPIIPTSGTIEQHPPPPSEPVVPAVMMATHEPSADLAPKKKPRKSSMPVKIEKEIIDTADEFDDEDDDPNDGGAVVNDMSHDNHCHSQEEMSPGMSVKDFSKHNRTRCISRTEIRRADSMTSEDQEPERDYENESESSEPKLGEESMEGDEHIHSEVSEKVLMNSERPDENHSEPSHQDVIKVKEEFTDPTYDMFYMSQYGLYNGGGASMAALHESFTSSLNYGSPQKFSPEGDLCSSPDPKICYVCKKSFKSSYSVKLHYRNVHLKEMHVCTVAGCNAAFPSRRSRDRHSANINLHRKLLTKELDDMGLDSSQPSLSKDLRDEFLVKIYGAQHPMGLDVREDASSPAGTEDSHLNGYGRGMAEDYMVLDLSTTSSLQSSSSIHSSRESDAGSDEGILLDDIDGASDSGESAHKAEAPALPGSLGAEVSGSLMFSSLSGSNGGIMCNICHKMYSNKGTLRVHYKTVHLREMHKCKVPGCNMMFSSVRSRNRHSQNPNLHKNIPFTSVD [BNC2]”, in the data set on HeLa Kyoto [1], the “solubility in G1/S (log2)” value is -0.628. Moreover, in the data set with HeLa Kyoto [2], the “solubility change mitosis (log2)” value was 0.235.

For “MAHYKAADSKREQFRRYLEKSGVLDTLTKVLVALYEEPEKPNSALDFLKHHLGAATPENPEIELLRLELAEMKEKYEAIVEENKKLKAKLAQYEPPQEEKRAE [MYCBP]”, the “solubility in G1/S (log2)” value with HeLa Kyoto [1] was -0.523. For the same sequence, the “solubility change mitosis (log2)” value in the data set on HeLa Kyoto [2] stood at 0.968.

For the origin of these results see the supplement of paper PMC5998384.
